Data published in article PMC8188405, “When is an obscurin variant pathogenic? The impact of Arg4344Gln and Arg4444Trp variants on protein–protein interactions and protein stability” (Human Molecular Genetics, 2021).
Numbering of substitutions follows the chain as printed. Names may count otherwise.

T1: titin Z8-Z9 (human, UniProt Q8WZ42-12 1698-1931)
T1 construct: titin, human, domains Z8-Z9, residues 1698 to 1931 based on NM_001267550/NP_001254479 (transcript variant IC); numbers count on: transcript variant IC; The vector encodes His6 followed by a TEV cleavage site; no cleavage is described; source: E. coli BL21-CodonPlus (DE3)-RIPL, purified (Ni-NTA)
T1 sequence (looked up): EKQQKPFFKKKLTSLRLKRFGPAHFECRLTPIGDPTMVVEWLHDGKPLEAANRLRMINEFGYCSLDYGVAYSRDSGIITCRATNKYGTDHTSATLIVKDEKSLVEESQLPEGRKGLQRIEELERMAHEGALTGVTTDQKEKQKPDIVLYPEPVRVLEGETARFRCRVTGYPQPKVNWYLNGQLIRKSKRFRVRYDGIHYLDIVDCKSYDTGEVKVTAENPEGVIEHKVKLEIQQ

B1: human full-length phospholamban (peptide, UniProt P26678 1-52, looked up)
chain: MEKVQYLTRSAIRRASTIEMPQQARQKLQNLFINFCLILICLLLICIIVMLL
notes: phospholamban, human, full length (synthetic); Kept in buffer with Triton X-100; seen on gels as monomeric and pentameric bands, both of which were pulled down by Ig58-Ig59; also called PLN; source: synthetic peptide, bought: Pepscan
B2: obscurin Ig58-Ig59 (wild type) (domain or fragment, human, UniProt Q5VST9 4337-4521, looked up)
chain: TAKNTVVRGLENVEALEGGEALFECQLSQPEVAAHTWLLDDEPVHTSENAEVVFFENGLRHLLLLKNLRPQDSCRVTFLAGDMVTSAFLTVRGWRLEILEPLKNAAVRAGAQACFTCTLSEAVPVGEASWYINGAAVQPDDSDWTVTADGSHHALLLRSAQPHHAGEVTFACRDAVASARLTVLG
modifications: labelled with the Monolith NT Protein Labeling kit RED-NHS (in the MST experiments only)
notes: obscurin, human, domains Ig58-Ig59, residues 4337-4521 based on NM_001098623/NP_001092093 (transcript variant B); The vector encodes His6 followed by a TEV cleavage site; no cleavage is described; The His6 tag holds the protein on Ni-NTA beads in the pull-downs; also called Ig58-Ig59WT; O5859; source: E. coli BL21-CodonPlus (DE3)-RIPL, purified (Ni-NTA); not shown: His6, N-terminal, kept
B3: obscurin Ig58-Ig59 R4444W (domain or fragment, human, UniProt Q5VST9 4337-4521, looked up)
chain: B2 chain with R108W
modifications: labelled with the Monolith NT Protein Labeling kit RED-NHS
notes: The variant occurs in the human population; also called R4444W variant; Arg4444Trp; source: E. coli BL21-CodonPlus (DE3)-RIPL, purified (Ni-NTA)
B4: obscurin Ig58-Ig59 R4344Q (domain or fragment, human, UniProt Q5VST9 4337-4521, looked up)
chain: B2 chain with R8Q
modifications: labelled with the Monolith NT Protein Labeling kit RED-NHS (in the MST experiments only)
notes: The variant occurs in the human population (found in up to 15% of African Americans); also called R4344Q variant; Arg4344Gln; source: E. coli BL21-CodonPlus (DE3)-RIPL, purified (Ni-NTA); not shown: His6, N-terminal, kept
B5: obscurin Ig58-Ig59 R4344Q, A4484T double variant (domain or fragment, human, UniProt Q5VST9 4337-4521, looked up)
chain: B2 chain with R8Q, A148T
modifications: labelled with the Monolith NT Protein Labeling kit RED-NHS
notes: source: E. coli BL21-CodonPlus (DE3)-RIPL, purified (Ni-NTA)
B6: phospholamban transmembrane region PLN(23-52) (peptide, UniProt P26678 23-52, looked up)
chain: QARQKLQNLFINFCLILICLLLICIIVMLL
notes: phospholamban, human, transmembrane region, residues 23-52 (synthetic); source: synthetic peptide, bought: Pepscan

Experiments:
[1] = molecular target: B2; assay: MST; obscurin Ig58-Ig59 labelled with RED-NHS (typically 50-100 nM); unlabelled PLN peptides diluted serially; PBS, 0.2% (v/v) Triton X-100, 2 mM DTT; Monolith NT.115; one-site binding model; details: both partners purified
titin Z8-Z9 = molecular target: T1, titin Z8-Z9; assay: MST; obscurin Ig58-Ig59 labelled with RED-NHS (typically 50-100 nM); unlabelled titin Z8-Z9 or ObB diluted serially; PBS, 2 mM DTT; Monolith NT.115; one-site binding model; details: both partners purified

Row | Kd [1] | Kd (titin Z8-Z9) | Binder | other results
1 | 18.9 µM | – | B1 | –
2 | – | 7.8 µM | B2 | –
3 | – | 6.4 µM | B3 | –
4 | – | 6.6 µM | B4 | –
5 | – | – | B5 | binding result (titin Z8-Z9): binds
6 | 58.5 µM | – | B6 | –
